Measurements published in the DeepSol protein solubility set.

Test: soluble on expression in E. coli; label from the status in PepcDB or PDB records

Soluble on expression in E. coli, soluble:
MGHHHHHHSHMIGKCTHVVDCRETMGMGEGGGIAQRGTFAQCGSEVLAVAMSPGRRHITKPVCEITFALREANIMTSTIVLNAGAGVPQDAPSAGAGSLFGLTPAEVEQMKRHKLLVVHLGGVKNHITYKARLILRNVDRPCIIICEYPVDFEDFAKIGVRTRAVMPDEPKTKGTIVDIVSGVIRGETCPQEKLDEIIRKVKLALGGA
MSLTEKTDQTLMLIDGHSMAFRAFFALPAENFSTSGGQATNAVYGFLSMLSTLLKDEQPTHVAVAFDVGRKTFRTDMFPAYKAQREATPPEFKGQVEILKEVLSTLGITTIEKIDFEADDVIATLSVAAKPLGFKTLIVTGDRDSFQLVNDTTTVLYPMKGVSVLHRFTPEAVEEKYGLTPRQYPEFAALRGDPSDNLPNIPGVGEKTATKWIAQYETLDNLLDHADEIKGKVGASLRERIEQVRMNRKLTEMVKDLELPLGPDDFEMKPVQVAEVAAKFDDLEFGTNLRERVLAVVKAEGSAAPVEEVEAEQVVVDTQSLAQWLPARAGQALALALAGVAKPAAGDTYALAIADTKRHAVLVDVADISAEDEKALATWLASEDPKMLHGAKAAYHMLAGRGFELHGVVHDTAIAAYLLRPGQRTYELADVYQRHLQRQLSTNDNGGQLTLLDAADDQSLVDDVIAILELSEELTKQLQEIQAFELYHDLEIPLSGILARMEAIGEGHHHHHH
SAQSQRAPDRVLCHSGQQQGLPRAAGGSVPHPRCH
MKRVFVFQDFKSQKFWSIDVRGTDVIVNYGKLGTDGQTQVKNFSSAGEAEKAAGKLIAEKTKKGYVETLEEVAKEMKVEAKKYALSYDEAEEGVNLMDKILKDKKLPSLKQITIGCWGYEGEDCSDIADGIVENKEKFAHFEGLFWGDIDFEEQEISWIEQVDLSPVLDAMPLLNNLKIKGTNNLSIGKKPRPNLKSLEIISGGLPDSVVEDILGSDLPNLEKLVLYVGVEDYGFDGDMNVFRPLFSKDRFPNLKWLGIVDAEEQNVVVEMFLESDILPQLETMDISAGVLTDEGARLLLDHVDKIKHLKFINMKYNYLSDEMKKELQKSLPMKIDVSDSQEYDDDYSYPMITELEHHHHHH
VVQAPTQVPGFLGDSVTLPCYLQVPNMEVTHVSQLTWARHGESGSMAVFHQTQGPSYSESKRLEFVAARLGAELRDASLRMFGLRVEDEGSYTCLFVTFPQGSRSVDIWLRVLAKPQNTAEVQKVQLTGEPVPMARCVSTGGRPPAQITWHSDLGGMPQTSQVPGFLSGTVTVTSLWILVPSSQVDGKQVTCKVEHESFEKPQLLTVSLTVYY
MNGGEKLESIPIDLIIEIHSRLPAESVARFRCVSKLWGSMFRRPYFTELFLTRSRARPRLLFVLQHNRKWSFSVFSSPQNQNIYEKPSFVVADFHMKFSVSTFPDFHSCSGLIHFSMMKGAYTVPVVCNPRTGQYAVLPKLTRTRYENSYSFVGYDPIEKQIKVLFMSDPDSGDDHRILTLGTTEKMLGRKIECSLTHNILSNEGVCINGVLYYKASRIVESSSDDDTSDDDDDDHERSDVIVCFDFRCEKFEFIVICFYGQLINSVQLSLKQKSHQKLDLII
GSHMSAMAESKVLVKGTPFNKPVIKGKLENNYDMSQDEVSLLLFLKTHGGKIPLYRIKNETGLKDPESVLKNLMDYGFALEDKERLGEKIVLTSEGEFVAQAIRVRDEELRLKEMKQKKNVNRSSAPPQ

Soluble on expression in E. coli, not soluble:
MGSDKIHHHHHHMNLKDLENPGVWYRPAPFWSWNDKLCEEELLRQIDEMYEKGYGGFFMHSRVGLVTEYLSEEWMRLVRSCAEHARKLGMLAWLYDEDKWPSGFAGGIVPLEKPEHRHKYLTLLKKDQIKPEDEILKKIERDGEEFYVVKRVMKLGDPWFNGTCYVDLLSRETTEAFLRSTHERYKKSCGDLFRVSIPGIFTDEPTYLRVHHPKETTLPWTERFPEEFLRRKGYDIRDHLEELFFNVKDYMKVRYDFFDVATSLFIENFTIPYAKWCEENGIFMTGHYMAEDTLRGQVEWIGAAMPHYEYMQIPGIDKLARHLEQVVTIKQVSSAAEQLGKKWVLCETFGTTGQHVSFLHRKWIADWQAVLGVTYINPHLSLYSMRGERKRDYPPNLFYQQPWWKNERFLSDYFARLNHIVTQGKREVKVLMIHPISSAWCVYSKFDDEIDKLNELFDTITKELVANKIDFHFGDEMILSKHGRVKEAKLRVGEYEYEVVVLPPLLNLKSSTVELLNSLAENGGKVFVLKDFRYGRFFPERVEGKKGRIEFLKKARVFETLEDLIEELKPFFSVDVLDTKTKENAKAVIAQKRVLEDGSYLLFLANTDIDREVHCHLELKEKRKHTYAIDLFNFKLVELKENEFVMFPASSVCIWVTDEEVPAEDEKVVSTGVLLEKEFDFETALNDFEVKMNSFNVLPVDRVEYFEAGGRVFRNEFVSKIWYEFYRLPDGTPFRVEYSFEVRKKPQKLFLVVECAENLDRITVNGREVRYERKSCIFNEEQNFLDVNFGKMEITDLVREGKNTVVLEGRKENNITGPGCHTRVKDPENHRPTEVETIYLVGDFSLVNVDETRYVIDAPKIPDHRDITRDGYPFYVGSFTLKKIFECKKDPGKRYFLKLNGVEAASVEVILNGKFLGVLFWRPFMIDITDALRNGKNELQLVLTNTLFNLIEANHKADVLEETFRRPKSFIDFEHHTDRYILLPFGLENVAVLSSSSR
MGHHHHHHSHMLTKFETKSARVKGLSFHPKRPWILTSLHNGVIQLWDYRMCTLIDKFDEHDGPVRGIDFHKQQPLFVSGGDDYKIKVWNYKLRRCLFTLLGHLDYIRTTFFHHEYPWILSASDDQTIRVWNWQSRTCVCVLTGHNHYVMCAQFHPTEDLVVSASLDQTVRVWDISGLRKKNLSPGAVESDVRGITGVDLFGTTDAVVKHVLEGHDRGVNWAAFHPTMPLIVSGADDRQVKIWRMNESKAWEVDTCRGHYNNVSCAVFHPRQELILSNSEDKSIRVWDMSKRTGVQTFRRDHDRFWVLAAHPNLNLFAAGHDGGMIVFKLERERPA
MGHHHHHHSHMDALSPSPAIPSNTDYPGPHSFDVSFQQSSTAKSATWTYSTELKKLYCQIAKTCPIQIKVMTPPPQGAVIRAMPVYKKAEHVTEVVKRCPNHELSREFNEGQIAPPSHLIRVEGNSHAQYVEDPITGRQSVLVPYEPPQVGTEFTTVLYNFMCNSSCVGGMNRRPILIIVTLETRDGQVLGRRCFEARICACPGRDRKADEDSIRKQQVSDSTKNGDGTKRPFRQNTHGIQM
MSLATARTYLASLTVATEDRTGYDRDLFPHWITQSGTCNTRETILKRDGTNVVTDSSCAATSGSWYSPYDGATWSASSDVDIDHMVPLAEAWDSGADSWTTSRRQSFANDLTRPQLLAVTDNVNQSKGDQDPATWMPSRSAYRCTYVRAWVQVKYYYDLSVDSAEKSAMQGYLANCEGHHHHHH
HLDGRGAAMMEMAGLAQKGGAVQIHCRIAEKPSDISAIRVAVGEADGVIGGDLVVTAGAKTLGLMSQGRTGAVVNSHDIVTGEFTRNTDFRVPSDRLQVSLQARLQDRVAFLDATELARILMGDSIYSNMMVFGAAWQRGLIPLSAEAIQRAIELNGAAVAQNARAFALGRWAVL
LQNKFKKYSKIPTGNGMTGRDVAIKMLQDNGIYDVQVTHTPGQLTDHYNPANKTVNLSEGVYDSNSIMAAAVAAHECGHAVQHARAYAPLTLRSK
MKFIHLTDIHLMPPGQSVSGSDPIEKLSKVFEDIATWHSDAEFCVVSGDLADLGDRESYEWLRQRLAHFPVPVFLMLGNHDVRETFISVFPDHPRDANGFIQHAHTAGGARFLFLDTLTGGPDIHDGELCNDRLAWFAAELERAGDMPVYVFLHHPPFDIAIPYVDEIKLRQPDAFHAALQAGRNIRHIFYGHVHRTTYVNWRGYPFTSLPSTNHQVPLIPEREGQEHSAEPLAYGVATIEGDQFTLHVDHYLGK
MAKGTIKTNTPPPAPVVGPPGKSAKYRVKHTITVMSGKGGVGKSTVAVNLAVSLAKKGLKVGLIDADINGPDDPKLLGVEDLKLYADDDGIIPAETKYGVKVVSMGFLLPSQDTPVIWRGSLMHKAIQQFLEDVSWKDTDYVVLDMPPGTGDVALSVAQLVPESNGVVIVVTPQDVALLDAKKAINFARQLKLPIFGIIENMSGFVCPHCGNVTYIFKEGGGEKSAKEYNVPFLGKIPLVPEIADNGDKGIPAVEINDTIKSIFNDIADKILKQILGENVKTEALEHHHHHH
MNNVIIIGGGIAGLCAAISLQKIGLDVKVYDKNTEPTVAGAGIIIAPNAMQALELYGISKKIKKFGNESDGFNLVSKKGTTFNKLIIPTCYPKMYSIHRKDLHQLLLSELKEDTVKWGKECVKIEQNEENALKIVFQDGSEALGNILIAADGIHSIVRKQVTQGDNYRYAGYTCWRGVTPTKNLSLTNDFIETWGTNGRFGIVPLPNNEVYWYALINAKARDPKYKAYTTTDLYNHFKTYHNPIPSILQNASDIDMIHRDIIDITPMKQFFDKRIVFIGDAAHALTPNLGQGACQAIEDAIILAECIKNNAYYRQAFTEFEQKRRDRIEKISNTAWKVGKIAQIESKPLTIVRNKVMKRIPKWISERQAHELYRFHL
MLCAKNKKDPKPPPASFSETSKVQNVQNTQPKPAAPSQMSIDESHSKNQKLPSAEKSVEECKKPVSPEKKKSPIKVLSEKKLKSKKKEEDKEPDEKVEKDVKKEVKADNNEPLVKNLKIAKKEQEEENPKTDLESHKDEAEAKKKESRRQKKMRNKNSKEGSVEKMEKSEKAY
MAHHHHHHMGGHGGLNILPQKKWNVYRKDAQYKVHYDEHKIIKEEKDKEIKRKKDEFESTISTLKKNMTKNEDSDNNYNNFYDENGEKKTTTNYCNDHINLFIDEEKELTAKQKKHEEFLIKKGHYIYYDKNFNTQHNSIYDKNKNAQIISDFNKMKLCERDWFLNKKNKNEKTKDNGANFFHIQKDNISEEHNKTENINSDLSLYCNTNNYITHDKKKEKKQMHYHIKKIIKYKQEKDKEKKRKRQGKEKKKPK
MTYCLAIKVDQGLVFASDSRTHAGVDYASVYSKMYRFDLHSDRLMIVLAAGNLATTQAVINLIRRDLENPGALYNLNTVAYLYDAASYIGETSVRVQEQHASAMQRCGISGEASFILGGQIQGQPPEIYLIYPQGNYITVSPDNPYLQIGETKYGKPILDRMIAPATTLEDAARCALVSIDSTMRSNISVGPPVEVAIYRRNSFVVGHYLHLDYSSPLYALIQKQWAEGIRNAFTLLPRFEWEDGGSIGSEQSQLEHHHHHH
MNEQGVIFNSNGKQLVGIEHLPEPIHQGQTNKGVIIVVGGPQTRVGSHRLFVHLARALAKQRIVVFCFDYSGAGDSEGTVSTFTDIQDDIEAAFTPLSSAIVILLSWLDGAYAMLHRPFCFTSMSALNKRR
MALTFTQAVSKLTSKFPHLNLVEFNGVRYPTVIVCPIHGRVTCSTFKSMLDSKSGCPKCASYGVNSHKIPEDTIDKLSKNTVLEDTVTGETLTFPSRASAARSLGINPAAITDRIKGRVHTETLLAGRYKVHICTK
DLSKNSDVAYLWCSSNKLTSLNLSGVKGLSVLVCHSNQIAGEEMTKVVNALPTLSPGAGAQSKFVVVDLKDTDEKNICTVKDVEKAKSKNWRVFDFNGDSDNMLPYEGSPTSNLAVDAPTVRIYPNPVGRYALVEIPESLLGQEAALYDMNGVKVYSFAVESLRQNIDLTHLPDGTYFFRLDNYTTKLIKQ
